Laboratory results reported in PMC2801614, “Promoter Recognition by a Complex of Spx and the C-Terminal Domain of the RNA Polymerase α Subunit” (PLoS ONE, 2010).

How the values were obtained:
wild-type Spx protein = molecular target: T1, wild-type Spx protein (Bacillus subtilis, UniProt O31602 1-131); experiment: native gel or EMSA; supershift of the αCTD-trxB promoter (-56 to -21) complex; 5 µM Spx and 5 µM αCTD preincubated 10 min at room temperature in 20 mM Tris-HCl pH 7.8, 50 mM NaCl, 5 mM MgCl2, 10% glycerol, then 32P-labelled probe 15 min; 6% native polyacrylamide gel in TGE buffer; no DTT; conditions: both partners purified
T1 construct: Spx of Bacillus subtilis; Made with the self-cleavable intein system (New England Biolabs); also called oxidized Spx; source: E. coli ER2566 (pMMN470), purified (chitin column, High S column)
T1 sequence (looked up): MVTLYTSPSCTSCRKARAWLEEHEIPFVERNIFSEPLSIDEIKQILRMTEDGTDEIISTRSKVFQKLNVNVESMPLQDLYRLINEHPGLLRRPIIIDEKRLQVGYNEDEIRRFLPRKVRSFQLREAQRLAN

[1] = molecular target: T2, alphaCTD (C-terminal domain of RNA polymerase alpha subunit);SpxR60E (Bacillus subtilis;Bacillus subtilis, UniProt P20429;O31602 225-314;1-131, |R60E); experiment: EMSA; 5 uM each; SpxR60E also prevents the alphaCTD-DNA complex; EMSA: 20 mM Tris-HCl pH 7.8, 50 mM NaCl, 5 mM MgCl2, 10% glycerol, 5 uM each protein unless stated, room temperature (10 min preincubation, 15 min with probe); conditions: protein: recombinant;recombinant; tags: tag-free after self-cleavable intein/chitin purification;intein (pTYB4), cleaved; cloned via NcoI/SmaI; copies: 1;1; label: 32P-dA at 3' end of the S42 strand (Klenow fill-in); blunt after Klenow fill-in of S42 (35-mer)
T2 sequence 1: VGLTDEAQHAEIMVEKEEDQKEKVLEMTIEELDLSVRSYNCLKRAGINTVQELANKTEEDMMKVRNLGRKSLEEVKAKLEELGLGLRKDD
T2 sequence 2: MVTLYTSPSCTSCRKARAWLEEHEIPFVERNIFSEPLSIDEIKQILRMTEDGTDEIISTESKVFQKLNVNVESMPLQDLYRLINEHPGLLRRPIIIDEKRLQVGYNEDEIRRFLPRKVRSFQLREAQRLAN

[2] = molecular target: T3, alphaCTD (C-terminal domain of RNA polymerase alpha subunit) (Bacillus subtilis, UniProt P20429 225-314); experiment: EMSA; 5 uM alphaCTD; EMSA: 20 mM Tris-HCl pH 7.8, 50 mM NaCl, 5 mM MgCl2, 10% glycerol, 5 uM each protein unless stated, room temperature (10 min preincubation, 15 min with probe); conditions: protein: recombinant; tags: tag-free after self-cleavable intein/chitin purification; label: 32P-dA at 3' end of the S42 strand (Klenow fill-in); blunt after Klenow fill-in of S42 (35-mer)
T3 sequence: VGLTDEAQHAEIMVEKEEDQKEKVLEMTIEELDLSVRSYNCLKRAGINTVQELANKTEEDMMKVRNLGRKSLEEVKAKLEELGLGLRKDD

Spx wild-type = molecular target: T4, Spx wild-type (Bacillus subtilis, UniProt O31602 1-131); experiment: EMSA; 5 uM Spx alone; EMSA: 20 mM Tris-HCl pH 7.8, 50 mM NaCl, 5 mM MgCl2, 10% glycerol, 5 uM each protein unless stated, room temperature (10 min preincubation, 15 min with probe); conditions: protein: recombinant; tags: tag-free after self-cleavable intein/chitin purification; label: 32P-dA at 3' end of the S42 strand (Klenow fill-in); blunt after Klenow fill-in of S42 (35-mer)
T4 sequence: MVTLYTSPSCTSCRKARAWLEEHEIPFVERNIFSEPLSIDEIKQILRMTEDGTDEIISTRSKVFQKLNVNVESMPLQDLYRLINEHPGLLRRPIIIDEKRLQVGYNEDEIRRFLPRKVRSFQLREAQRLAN

[3] = molecular target: T3, alphaCTD (C-terminal domain of RNA …); experiment: EMSA; EMSA: 20 mM Tris-HCl pH 7.8, 50 mM NaCl, 5 mM MgCl2, 10% glycerol, 5 uM each protein unless stated, room temperature (10 min preincubation, 15 min with probe); conditions: protein: recombinant; tags: tag-free after self-cleavable intein/chitin purification; label: 32P-dA at 3' end of the S44 strand (Klenow fill-in); blunt after Klenow fill-in of S44 (35-mer)

B1: αCTD (residues 225–314) (domain or fragment, Bacillus subtilis, UniProt P20429 225-314, looked up)
chain: VGLTDEAQHAEIMVEKEEDQKEKVLEMTIEELDLSVRSYNCLKRAGINTVQELANKTEEDMMKVRNLGRKSLEEVKAKLEELGLGLRKDD
notes: RNA polymerase α subunit (RpoA) of Bacillus subtilis, C-terminal domain, residues 225-314; Made with the self-cleavable intein system (New England Biolabs); also called rpoA-CTD; source: E. coli BL21/pLysS (pSN37), purified (chitin column, High Q column)
wild-type Spx protein
  binding result: binds

B2: trxB promoter (-56 to -21) (dsDNA)
DNA 1: TAATCGTGTTGAGCAAAAAAATAGCGTATCACCATG
DNA 2: CATGGTGATACGCTATTTTTTTGCTCAACACGATTA
[1]
  binding result: no binding
[2]
  binding result: binds
Spx wild-type
  binding result: no binding

B3: trxB (-56 to -21) G-44A G-33A (dsDNA)
DNA 1: TAATCGTGTTGAACAAAAAAATAACGTATCACCATG
DNA 2: CATGGTGATACGTTATTTTTTTGTTCAACACGATTA
[3]
  binding result: binds
